These results are taken from US20250179144A1.

Positions count from the first letter of the chain named.

Assay [1] concerns the target full-length human BTN3A1 on transfected cells pre-treated (cross-linked) with anti-BTN3A mAb clone 20.1 (human). Nature of the assay: flow cytometry, FRET (YG 670/30) between TCR tetramer-PE and anti-BTN3A 20.1-AF647 on BTN3A1+ NIH-3T3 cells; with IgG1κ-AF647 the gate holds 0.02, with SAv 0.
In assay [2] the target is BTN2A1 ectodomain homodimer, disulfide-linked (C-terminal Cys247, acidic or basic leucine zipper) (human) (UniProt Q7KYR7). Nature of the assay: SPR, soluble TCR over immobilised BTN2A1 homodimer, KD at equilibrium.
Chain of BTN2A1 ectodomain homodimer, disulfide-linked (C-terminal Cys247, acidic or basic leucine zipper) (human) (Q7KYR7 29-248, chain 1 of 2): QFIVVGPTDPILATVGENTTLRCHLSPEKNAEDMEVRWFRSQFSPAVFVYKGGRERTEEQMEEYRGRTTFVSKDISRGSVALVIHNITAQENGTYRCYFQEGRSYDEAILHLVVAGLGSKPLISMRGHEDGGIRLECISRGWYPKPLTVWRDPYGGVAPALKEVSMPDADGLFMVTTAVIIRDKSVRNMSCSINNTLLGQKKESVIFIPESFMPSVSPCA
Chain of BTN2A1 ectodomain homodimer, disulfide-linked (C-terminal Cys247, acidic or basic leucine zipper) (human) (Q7KYR7 29-248, chain 2 of 2): as the sequence (Q7KYR7 29-248, chain 1 of 2) above
In assay [3] the target is BTN2A1 (WT) and BTN3A1 (WT) co-expressed on NIH-3T3 cells (human) (UniProt Q7KYR7). Nature of the assay: flow cytometry on NIH-3T3 cells co-transfected with BTN2A1 WT and BTN3A1 WT, zoledronate (100 µM). (A flow cytometer gives signals particle by particle.)
Chain of BTN2A1 (WT) and BTN3A1 (WT) co-expressed on NIH-3T3 cells (human) (Q7KYR7 29-527, chain 1 of 2): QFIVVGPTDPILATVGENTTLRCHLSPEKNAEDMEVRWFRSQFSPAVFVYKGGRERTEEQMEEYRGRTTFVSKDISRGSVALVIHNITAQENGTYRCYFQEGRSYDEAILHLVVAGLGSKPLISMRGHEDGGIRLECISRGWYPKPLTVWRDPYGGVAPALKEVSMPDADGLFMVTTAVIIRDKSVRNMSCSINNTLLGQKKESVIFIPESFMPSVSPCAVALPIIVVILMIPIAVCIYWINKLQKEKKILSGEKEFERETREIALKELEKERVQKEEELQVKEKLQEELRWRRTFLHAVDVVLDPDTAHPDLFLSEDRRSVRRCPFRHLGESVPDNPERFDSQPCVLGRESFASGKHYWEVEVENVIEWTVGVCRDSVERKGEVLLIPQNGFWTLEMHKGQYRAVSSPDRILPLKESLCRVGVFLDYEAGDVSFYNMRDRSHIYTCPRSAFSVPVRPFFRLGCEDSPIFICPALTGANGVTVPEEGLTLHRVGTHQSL
Chain of BTN2A1 (WT) and BTN3A1 (WT) co-expressed on NIH-3T3 cells (human) (chain, as listed by the source, chain 2 of 2): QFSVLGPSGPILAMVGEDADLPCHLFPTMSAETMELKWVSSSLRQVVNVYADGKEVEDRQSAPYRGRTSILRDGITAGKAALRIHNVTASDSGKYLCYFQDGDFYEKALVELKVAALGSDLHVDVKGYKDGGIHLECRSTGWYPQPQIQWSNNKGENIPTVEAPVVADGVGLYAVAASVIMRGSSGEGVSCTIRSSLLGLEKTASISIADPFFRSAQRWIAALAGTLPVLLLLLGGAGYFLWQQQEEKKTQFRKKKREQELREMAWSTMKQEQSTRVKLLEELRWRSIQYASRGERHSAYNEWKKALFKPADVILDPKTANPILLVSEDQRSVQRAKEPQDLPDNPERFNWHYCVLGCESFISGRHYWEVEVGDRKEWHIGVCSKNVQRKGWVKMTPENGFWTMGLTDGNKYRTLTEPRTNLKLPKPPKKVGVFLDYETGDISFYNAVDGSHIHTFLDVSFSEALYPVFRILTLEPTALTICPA
Assay [4] concerns the target full-length human BTN3A1 on transfected cells (human) (UniProt O00481). Nature of the assay: flow cytometry, γδTCR tetramer-PE on BTN3A1-transfected NIH-3T3 cells treated with isotype IgG1κ (black number); SAv control 25.
The target in assay [5] is BTN2A1 (WT) and BTN3A1 (Glu106-Ala) co-expressed on NIH-3T3 cells (human) (UniProt Q7KYR7). Nature of the assay: flow cytometry on NIH-3T3 cells co-transfected with BTN2A1 WT and BTN3A1 Glu106-Ala, zoledronate (100 µM).
Chain of BTN2A1 (WT) and BTN3A1 (Glu106-Ala) co-expressed on NIH-3T3 cells (human) (Q7KYR7 29-527 limits assumed, chain 1 of 2): as the sequence (Q7KYR7 29-527, chain 1 of 2) above
Chain of BTN2A1 (WT) and BTN3A1 (Glu106-Ala) co-expressed on NIH-3T3 cells (human) (chain, as listed by the source E106A E106A limits assumed, chain 2 of 2): as the sequence (chain, as listed by the source, chain 2 of 2) above, with E106A counted along it
For assay [6], the target named is BTN2A1 (Ser44-Arg) and BTN3A1 (Glu106-Ala) co-expressed on NIH-3T3 cells (human) (UniProt Q7KYR7). Nature of the assay: flow cytometry on NIH-3T3 cells co-transfected with BTN2A1 Ser44-Arg and BTN3A1 Glu106-Ala, no zoledronate.
Chain of BTN2A1 (Ser44-Arg) and BTN3A1 (Glu106-Ala) co-expressed on NIH-3T3 cells (human) (Q7KYR7 29-527 S72R limits assumed, chain 1 of 2): as the sequence (Q7KYR7 29-527, chain 1 of 2) above, with S44R counted along it
Chain of BTN2A1 (Ser44-Arg) and BTN3A1 (Glu106-Ala) co-expressed on NIH-3T3 cells (human) (chain, as listed by the source S44R E106A S44R E106A limits assumed, chain 2 of 2): as the sequence (chain, as listed by the source, chain 2 of 2) above, with E106A counted along it
Assay [7] concerns the target BTN2A1 (WT) and BTN3A1 (Glu106-Ala) co-expressed on NIH-3T3 cells (human) (UniProt Q7KYR7). The experiment in a line: flow cytometry on NIH-3T3 cells co-transfected with BTN2A1 WT and BTN3A1 Glu106-Ala, no zoledronate.
The target in assay [8] is BTN2A1 (Ser44-Arg) and BTN3A1 (WT) co-expressed on NIH-3T3 cells (human) (UniProt Q7KYR7). The experiment in a line: flow cytometry on NIH-3T3 cells co-transfected with BTN2A1 Ser44-Arg and BTN3A1 WT, zoledronate (100 µM).
Chain of BTN2A1 (Ser44-Arg) and BTN3A1 (WT) co-expressed on NIH-3T3 cells (human) (Q7KYR7 29-527 S72R, chain 1 of 2): as the sequence (Q7KYR7 29-527, chain 1 of 2) above, with S44R counted along it
Chain of BTN2A1 (Ser44-Arg) and BTN3A1 (WT) co-expressed on NIH-3T3 cells (human) (chain, as listed by the source S44R S44R, chain 2 of 2): as the sequence (chain, as listed by the source, chain 2 of 2) above
The target of assay [9] is BTN2A1 (WT) and BTN3A1 (WT) co-expressed on NIH-3T3 cells (human) (UniProt Q7KYR7). Nature of the assay: flow cytometry on NIH-3T3 cells co-transfected with BTN2A1 WT and BTN3A1 WT, no zoledronate.
Assay [10] deals with BTN2A1 (Ser44-Arg) and BTN3A1 (Glu106-Ala) co-expressed on NIH-3T3 cells (human) (UniProt Q7KYR7). The experiment in a line: flow cytometry on NIH-3T3 cells co-transfected with BTN2A1 Ser44-Arg and BTN3A1 Glu106-Ala, zoledronate (100 µM).
Assay [11] concerns the target BTN2A1 (Ser44-Arg) and BTN3A1 (WT) co-expressed on NIH-3T3 cells (human) (UniProt Q7KYR7). Nature of the assay: flow cytometry on NIH-3T3 cells co-transfected with BTN2A1 Ser44-Arg and BTN3A1 WT, no zoledronate.
For assay [12], the target named is BTN2A1-BTN3A1-zipper ectodomain complex (construct #1, long linker version with high affinity zippers) (human). Nature of the assay: SPR, equilibrium; BTN2A1-BTN3A1 ectodomain complex immobilised, soluble TCR injected. Background: SPR reads the build-up and loss of mass on a sensor chip optically.

Chain of full-length human BTN3A1 on transfected cells (human) (O00481 30-513): as the sequence (chain, as listed by the source, chain 2 of 2) above
Chain of full-length human BTN3A1 on transfected cells pre-treated (cross-linked) with anti-BTN3A mAb clone 20.1 (human) (O00481 30-513): as the sequence (chain, as listed by the source, chain 2 of 2) above

B1: soluble G115 Vγ9Vδ2+ TCR Lys53δ-Ala (TCR, from a related filing)
TCR delta: AIELVPEHQTVPVSIGVPATLRCSMKGEAIGNYYINWYRKTQGNTMTFIYREADIYGPGFKDNFQGDIDIAKNLAVLKILAPSERDEGSYYCACDTLGMGGEYTDKLIFGKGTRVTVEPRSQPHTKPSVFVMKNGTNVACLVKEFYPKDIRINLVSSKKITEFDPAIVISPSGKYNAVKLGKYEDSNSVTCSVQHDNKTVHSTDFEVKTDSTDHVKPKETENTKQPSKSCHKPKAIVHTEK
TCR gamma: AGHLEQPQISSTKTLSKTARLECVVSGITISATSVYWYRERPGEVIQFLVSISYDGTVRKESGIPSGKFEVDRIPETSTSTLTIHNVEKQDIATYYCALWEAQQELGKKIKVFGPGTKLIITDKQLDADVSPKPTIFLPSIAETKLQKAGTYLCLLEKFFPDVIKIHWEEKKSNTILGSQEGNTMKTNDTYMKFSWLTVPEKSLDKEHRCIVRHENNKNGVDQEIIFPPIKTDVITMDPKDNCSKDANDTLLLQLTNTSA
Broadly, the Kd is the concentration at which binding is half-saturated. Low values mean tighter binding, high ones weaker binding. B1: the % cells in the FRET gate in [1] was 34%. In assay [2], this molecule gave a Kd of 81 µM.

B2: soluble G115 Vγ9Vδ2+ TCR His85γ-Ala (TCR, from a related filing, V domains shown)
V domain 1: AIELVPEHQTVPVSIGVPATLRCSMKGEAIGNYYINWYRKTQGNTMTFIYREKDIYGPGFKDNFQGDIDIAKNLAVLKILAPSERDEGSYYCACDTLGMGGEYTDKLIFGKGTRVTVEP
V domain 2: AGHLEQPQISSTKTLSKTARLECVVSGITISATSVYWYRERPGEVIQFLVSISYDGTVRKESGIPSGKFEVDRIPETSTSTLTIANVEKQDIATYYCALWEAQQELGKKIKVFGPGTKLIITD
With B2, the mean fluorescence intensity of TCR tetramer (black gate) was 1700 in assay [3]; 23300 in assay [5]; 11300 in [6]; 7210 in [7]; 28100 in assay [8]; 635 in assay [9]. For the same molecule, the mean fluorescence intensity of TCR tetramer (black gate) was found to be 26600 in assay [10] and 10800 in [11]. The molecule also returned an MFI of PE (GFP+ gate) in assay [4] of 33. The molecule further registered a dissociation constant Kd in assay [12] of 740 µM.

B3: soluble G115 Vγ9Vδ2+ TCR Glu52δ-Ala (TCR, from a related filing, V domains shown)
V domain 1: B2 V domain 1 with E52A
V domain 2: B2 V domain 2 with A85H
For the molecule B3, the MFI of PE (GFP+ gate) in [4] was determined as 32. In addition, the Kd stood at 93 µM in assay [2] and 140 µM in assay [12].

B4: G115 Vγ9Vδ2+ TCR tetramer Lys108γ-Ala (TCR, from a related filing, V domains shown)
V domain 1: B2 V domain 1
V domain 2: B2 V domain 2 with A85H, K108A
As to B4, in assay [4], the MFI of PE (GFP+ gate) worked out at 25.

B5: G115 Vγ9Vδ2+ TCR tetramer with combined His85γ-Ala and Glu52δ-Ala mutations (TCR, from a related filing, V domains shown)
V domain 1: B2 V domain 1 with E52A
V domain 2: B2 V domain 2
For the molecule B5, the MFI of PE (GFP+ gate) in assay [4] was 38.
